# In patent publication US7223902B1, “Method of producing recombinant Aspergillus niger β-glucosidase and an aroma spreading plant” (Yissum Research Development Company of the Hebrew …, priority 1999, dated 2007):
# B1: recombinant BGL1: Recombinant Aspergillus niger B1 β-glucosidase (SEQ ID NO:2) expressed from bgl1 cDNA in P. pastoris, S. cerevisiae or E. coli (protein)
# chain: MRFTLIEAVALTAVSLASADELAYSPPYYPSPWANGQGDWAQAYQRAVDIVSQMTLDEKVNLTTGTGWELELCVGQTGGVPRLGVPGMCLQDSPLGVRDSDYNSAFPAGMNVAATWDKNLAYLRGKAMGQEFSDKGADIQLGPAAGPLGRSPDGGRNWEGFSPDPALSGVLFAETIKGIQDAGVVATAKHYIAYEQEHFRQAPEAQGFGFNISESGSANLDDKTMHELYLWPFADAIRAGAGAVMCSYNQINNSYGCQNSYTLNKLLKAELGFQGFVMSDWAAHHAGVSGALAGLDMSMPGDVDYDSGTSYWGTNLTISVLNGTVPQWRVDDMAVRIMAAYYKVGRDRLWTPPNFSSWTRDEYGYKYYYVSEGPYEKVNQYVNVQRNHSELIRRIGADSTVLLKNDGALPLTGKERLVALIGEDAGSNPYGANGCSDRGCDNGTLAMGWGSGTANFPYLVTPEQAISNEVLKHKNGVFTATDNWAIDQIEALAKTASVSLVFVNADSGEGYINVDGNLGDRRNLTLWRNGDNVIKAAASNCNNTIVVIHSVGPVLVNEWYDNPNVTAILWGGLPGQESGNSLADVLYGRVNPGAKSPFTWGKTREAYQDYLVTEPNNGNGAPQEDFVEGVFIDYRGFDKRNETPIYEFGYGLSYTTFNYSNLEVQVLSAPAYEPASGETEAAPTFGEVGNASDYLYPSGLLRITKFIYPWLNGTDLEASSGDASYGQDSSDYLPEGATDGSAQPILPAGGGPGGNPRLYDELIRVSVTIKNTGKVAGDEVPQLYVSLGGPNEPKIVLRQFERITLQPSEETKWSTTLTRRDLANWNVEKQDWEITSYPKMVFVGSSSRKLPLRASLPTVH
# modifications: Aspergillus niger
# B2: BGL1: BGL1 without a signal peptide expressed in tobacco plants (plasmid pJDB1, SEQ ID NO:14) (protein)
# chain: DELAYSPPYYPSPWANGQGDWAQAYQRAVDIVSQMTLDEKVNLTTGTGWELELCVGQTGGVPRLGVPGMCLQDSPLGVRDSDYNSAFPAGMNVAATWDKNLAYLRGKAMGQEFSDKGADIQLGPAAGPLGRSPDGGRNWEGFSPDPALSGVLFAETIKGIQDAGVVATAKHYIAYEQEHFRQAPEAQGFGFNISESGSANLDDKTMHELYLWPFADAIRAGAGAVMCSYNQINNSYGCQNSYTLNKLLKAELGFQGFVMSDWAAHHAGVSGALAGLDMSMPGDVDYDSGTSYWGTNLTISVLNGTVPQWRVDDMAVRIMAAYYKVGRDRLWTPPNFSSWTRDEYGYKYYYVSEGPYEKVNQYVNVQRNHSELIRRIGADSTVLLKNDGALPLTGKERLVALIGEDAGSNPYGANGCSDRGCDNGTLAMGWGSGTANFPYLVTPEQAISNEVLKHKNGVFTATDNWAIDQIEALAKTASVSLVFVNADSGEGYINVDGNLGDRRNLTLWRNGDNVIKAAASNCNNTIVVIHSVGPVLVNEWYDNPNVTAILWGGLPGQESGNSLADVLYGRVNPGAKSPFTWGKTREAYQDYLVTEPNNGNGAPQEDFVEGVFIDYRGFDKRNETPIYEFGYGLSYTTFNYSNLEVQVLSAPAYEPASGETEAAPTFGEVGNASDYLYPSGLLRITKFIYPWLNGTDLEASSGDASYGQDSSDYLPEGATDGSAQPILPAGGGPGGNPRLYDELIRVSVTIKNTGKVAGDEVPQLYVSLGGPNEPKIVLRQFERITLQPSEETKWSTTLTRRDLANWNVEKQDWEITSYPKMVFVGSSSRKLPLRASLPTVH
# What was measured:
# [1] = biological target: A. niger β-Glucosidase (BGL1); assay: Inactivation of A. niger β-glucosidase by 2FGlcF, residual activity with DNPGlc; format: biochemical, Aspergillus niger; details: 30 mM citrate buffer pH=4.8, 50° C., 0.5-6 mM inactivator
# Method: Pure A. niger β-Glucosidase enzyme (0.47 mg/ml) was incubated in the presence of various concentrations of 2-deoxy-2-fluoro-β-glucosyl fluoride (2FGlcF, 0.5-6 mM) in 30 mM citrate buffer pH=4.8 at 50° C. Residual enzyme activity was determined at different time intervals by addition of an aliquot (10 μl) of the inactivation mixture, to a solution containing citrate buffer (30 mM, pH=4.8), BSA (8 μg) and 2,4-dinitrophenyl β-D-glucopyranoside (DNPGlc, 0.625 mM, 830 μl). Release of DNP was determined spectrophotometrically by measuring the absorbance at 400 nm one minute after the addition of the substrate.
# Enzyme was incubated in the presence of various concentrations of 2FGlcF and residual enzyme activity was monitored at different time intervals.
# [2] = tested on: 2-deoxy-2-fluoroglucosyl-BGL1; assay: Reactivation of 2FGlcF-inactivated enzyme in the presence of linamarin; format: biochemical, Aspergillus niger; details: linamarin 0-16 mM, pH=4.8, 50° C., 0, 10, 20 and 30 min
# Method: Reactivation rates were determined as follows: pure A. niger β-glucosidase (0.34 mg/ml) was preincubated with 2FGlcF (5 mM) for 15 min, after which the excess of the inactivator was diafiltered by 20-kDa nominal molecular mass cutoff centrifugal concentrators (Sartorius Inc., Goettingen, Germany). Samples of the purified, inactivated enzyme were incubated in the presence linamarin (0-16 mM) in citrate buffer (30 mM, pH=4.8) at 50° C. for 0, 10, 20 and 30 minutes, and the activity of each sample was determined using p-nitrophenyl β-D-glucopyranoside (pNPGlc) as a substrate.
# Rates of reactivation of 2-deoxy-2-fluoroglucosyl-BGL1 were determined in the presence of different concentrations of linamarin by monitoring activity regain after 0, 10, 20 and 30 min (FIG. 9).
# [3] = Quantitative β-glucosidase assay using pNPGlc as a substrate; format: biochemical
# Method: Quantitative assays were performed using pNPGlc as a substrate according to Shoseyov (7).
# [4] = Determination of thermal stability of A. niger β-glucosidase (standard pNPGlc assay); format: physicochemical; details: for % activity: percent of enzyme solution kept at 4° C., pH=5
# Method: Determination of Thermal Stability of A. niger β-Glucosidase:
# Recombinant enzyme (40 μg/ml) was dissolved in 20 mM citrate phosphate buffer, pH=5. Each tested sample (8 μl) was covered by 15 μl mineral oil. The activity was determined by the standard pNPGlc assay (7).
# Thermal stability of the recombinant enzyme was evaluated at different temperatures, presented as percent enzymatic activity relative to an enzyme solution kept at 4° C. Results obtained are summarized in Table 2 and illustrated in FIG. 10.
# [5] = SDS-PAGE activity gel staining (MUGlc) of transgenic tobacco plant extracts; format: biochemical, Nicotiana tabacum cv. Samson; details: number of tobacco regenerates with BGL1 activity
# Method: Detection of β-glucosidase in polyacrylamide gels was carried out by washing the SDS-polyacrylamide gel with 1:1 isopropanol:PC buffer to remove SDS and renature the enzyme. The gel was washed once in PC buffer and incubated in a thin layer of a solution of 0.5 mM MUGlc. After incubation at 50° C. for one hour, the active protein band was visualized by UV light.
# Western blot (40) and SDS-PAGE activity gel staining (37) were employed to screen successful transgenic lines, using the purified A. niger BGL1 protein as positive controls and non-transgenic plant as negative control.
molecule,measurement,setting,value
"OC[C@H]1O[C@@H](F)[C@H](F)[C@@H](O)[C@@H]1O [2FGlcF, 2-deoxy-2-fluoro β-glucosyl fluoride]",KI (inactivation),[1],35.4 mM
same,pseudo-first order rate constant Ki for inactivation,[1],4.5 min⁻¹
CC(C)(C#N)O[C@@H]1O[C@H](CO)[C@@H](O)[C@H](O)[C@H]1O [linamarin],regain of activity of 2-deoxy-2-fluoroglucosyl-BGL1,[2],followed a first order process
B1,β-glucosidase activity,"[3]; overexpressed in E. coli, E. coli extracts",No apparent β-glucosidase activity could be detected
same,specific activity,"[3]; secreted by P. pastoris to the medium, without further purification",124 units/mg protein
same,% activity,[4]; 4 °C,100%
same,% activity,[4]; 50 °C,91.5%
same,% activity,[4]; 55 °C,83.5%
same,% activity,[4]; 60 °C,68%
same,% activity,[4]; 65 °C,17.8%
same,% activity retained,"[4]; after 1 hour incubation at 60° C., percent activity of an enzyme kept at 4° C.",68%
same,activity maintained,[4]; temperature ranging from 4-60° C.,above 50%
B2,Activity gel positive,[5],0
